Data as given in patent publication US20220389097A1 (Genentech, published 2022).

Legend:
[1] = target: T1, soluble human TREM2 (sTREM2) (human, UniProt Q9NZC2 19-157); assay: sandwich ELISA: test antibody coated as capture, sTREM2 from BMDM culture supernatant, biotinylated 3.17A9 as detection
T1 construct: also called soluble TREM2; TREM2 ectodomain
T1 sequence: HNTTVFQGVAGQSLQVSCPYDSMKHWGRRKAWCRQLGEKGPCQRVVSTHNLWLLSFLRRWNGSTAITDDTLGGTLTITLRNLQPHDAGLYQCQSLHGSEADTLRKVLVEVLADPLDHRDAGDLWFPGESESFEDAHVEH
Excerpt: For example, as shown in an Example 11 herein, the human TREM2 ELISA assay measured binding of antibodies to sTREM2 by coating onto plate wells the antibody to be tested as capture reagents and with biotinylated IgV-reactive monoclonal antibody 3.17A9 used as the detection reagent. Control antibody 1.16B8 was used as a positive control antibody to establish the standard for sTREM2 binding.
A human TREM2 ELISA assay was used to measure binding of more than forty antibodies to soluble TREM2 (sTREM2) as follows: test anti-hTREM2 antibodies were coated onto plate wells as capture reagents and a biotinylated IgV-reactive monoclonal antibody, 3.17A9, was used as the detection reagent. Antibody 1.16B8 was used as a control antibody to establish the standard for sTREM2 binding. Plates coated with test or control antibody were incubated with diluted culture supernatant from bone marrow-derived macrophage (BMDM) cultures from transgenic mice expressing hTREM2. sTREM2 is constitutively produced by the BMDM cultures expressing hTREM2 and shed into the culture supernatant. Measurements were recorded at 450 nm for detection and 570 nm for background. The 3.17A9/1.16B8 antibody pair was selected over reagents provided in the R&D Systems kit as the commercial reagents were not compatible with sTREM2 detection of some of the antibodies tested. […]

human TREM2 on cells [2] = target: T2, human TREM2 on cells (human, UniProt Q9NZC2 19-230); assay: cell-based or functional assay
T2 sequence: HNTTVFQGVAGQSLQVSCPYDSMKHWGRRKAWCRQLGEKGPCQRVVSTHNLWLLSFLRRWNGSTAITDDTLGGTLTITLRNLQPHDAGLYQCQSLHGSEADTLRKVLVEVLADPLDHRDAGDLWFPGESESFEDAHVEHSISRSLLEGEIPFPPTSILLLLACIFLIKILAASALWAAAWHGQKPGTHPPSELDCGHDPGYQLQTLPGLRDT

[3] = target: T3, soluble monomeric human TREM2 (human, UniProt Q9NZC2 19-174, limits assumed); assay: SPR (Biacore T200), 37 C; IgG on anti-CH1 chip, soluble monomeric TREM2
T3 construct: Not the same as shed sTREM2; also called soluble monomeric TREM2
T3 sequence: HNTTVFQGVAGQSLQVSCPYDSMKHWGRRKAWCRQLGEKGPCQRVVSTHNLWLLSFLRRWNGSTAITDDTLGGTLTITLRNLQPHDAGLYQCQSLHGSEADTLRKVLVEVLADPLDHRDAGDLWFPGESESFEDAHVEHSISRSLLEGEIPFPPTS

human TREM2 on cells [4] = target: T2, human TREM2 on cells; assay: cell-based or functional assay; remark: listed apart in the source

B1: hPara.09.v2 hIgG1 N297G (antibody, V domains shown)
VH: EVQLVESGGGLVQPGGSLKLSCATSGFPFSNVWLHWVRQASGKGPEWVAHIKAKSDNYATYYAESVKGRFTISRDDSKNTVYLQMNSLKTEDTAVYYCTDILEYWGQGTLVTVSS
VL: DVVMTQSPLSLPVTPGEPASISCRSSRSLLTSKGITSLYWYLQKPGQSPQLLIYRMSNLASGIPDRFSGSGSGTDFTLKISRVEAEDVGVYYCAQFLVYPYTFGQGTKVEIKR
notes: also called hPara.09.H5.hIgG1.N297G
Question: What does the source list for B1?
Answer: binding result [1]: no binding; EC50, Jurkat NFAT luciferase reporter cells (human TREM2 on cells [2]): 0.0245 µg/mL; IC50, TREM2 shedding inhibition in Jurkat-NFAT reporter cells (sTREM2 ELISA) (human TREM2 on cells [2]): 0.162 µg/mL; Kd [3]: 0.016 nM; koff [3]: 3.5e-05 s⁻¹; kon [3]: 2.3e+06 M⁻¹ s⁻¹; EC50, average X04 plaque intensity, human iPSC-derived microglia plaque assay (FIG. 24C) (human TREM2 on cells [4]): 320 nM; EC50, survival of iPSC-derived microglia (FIG. 23E) (human TREM2 on cells [4]): 0.065 nM; EC50, total Abeta plaque intensity, human iPSC-derived microglia plaque assay (FIG. 24B) (human TREM2 on cells [4]): 330 nM; phospho-SYK/total SYK relative to anti-gD control, iPSC-derived microglia, 1 hour (human TREM2 on cells [4]): 2 fold; phospho-SYK/total SYK relative to anti-gD control, iPSC-derived microglia, 4 hours (human TREM2 on cells [4]): > 10 fold
